Laboratory results: PMC5030626, “G-quadruplex aptamer targeting Protein A and its capability to detect Staphylococcus aureus demonstrated by ELONA”

What was measured:
[1] = molecular target: T1, Protein A, recombinant (P7837) (Staphylococcus aureus, UniProt P02976 37-327); assay: ELONA; signal in range of library control; ELONA and bead assay: 100 mM NaCl, 20 mM Tris-HCl pH 7.6, 10 mM MgCl2, 5 mM KCl, 1 mM CaCl2, 0.005% Tween 20, 21 C; CD: 25 mM Britton-Robinson pH 7.6, 100 mM NaCl, 10 mM MgCl2, 1 mM CaCl2, 5 mM KCl
[2] = molecular target: T2, Protein A, native (Staphylococcus aureus, UniProt P38507 37-477); assay: CD difference spectrum; ELONA and bead assay: 100 mM NaCl, 20 mM Tris-HCl pH 7.6, 10 mM MgCl2, 5 mM KCl, 1 mM CaCl2, 0.005% Tween 20, 21 C; CD: 25 mM Britton-Robinson pH 7.6, 100 mM NaCl, 10 mM MgCl2, 1 mM CaCl2, 5 mM KCl
[3] = molecular target: T1, Protein A, recombinant (P7837); assay: ELONA; ELONA and bead assay: 100 mM NaCl, 20 mM Tris-HCl pH 7.6, 10 mM MgCl2, 5 mM KCl, 1 mM CaCl2, 0.005% Tween 20, 21 C; CD: 25 mM Britton-Robinson pH 7.6, 100 mM NaCl, 10 mM MgCl2, 1 mM CaCl2, 5 mM KCl; settings: protein: recombinant
[4] = molecular target: T2, Protein A, native; assay: as above; settings: protein: native; label: 3'-biotin; G4 (parallel, di-/multimers) plus 5' imperfect hairpin

Does ATACCAGCTTATTCAATTAGCAACATGAGGGGGATAGAGGGGGTGGGTTC (structured_DNA) [PA#2/8[S1-50] (Bio)] bind ([1]; label: biotin (5' or 3'; 3' on cells), G4 plus 5' imperfect hairpin)?
Result: no binding

Does ATACCAGCTTATTCAATTAGCAACATGAGGGGGATAGAGGGGGTGGGTTC (structured_DNA) [PA#2/8[S1-50] (unlabelled)] bind ([2]; G4 plus 5' imperfect hairpin)?
Result: binds

B1: PA#2/8 (3'Bio) (structured_DNA)
DNA: ATACCAGCTTATTCAATTAGCAACATGAGGGGGATAGAGGGGGTGGGTTCTCTCGGCTACAATCGTAATCAGTTAG
Which results are given for B1?
Kd ([3]; label: 3'-biotin, G4 (parallel, di-/multimers) plus 5' imperfect hairpin): 101 ± 5.9 nM; binding result [4]: binds

B2: PA#2/8 (unlabelled) (structured_DNA)
DNA: ATACCAGCTTATTCAATTAGCAACATGAGGGGGATAGAGGGGGTGGGTTCTCTCGGCTACAATCGTAATCAGTTAG
Does B2 bind ([2]; G4 (parallel, di-/multimers) plus 5' imperfect hairpin)?
Result: binds

B3: PA#2/8 (5'Bio) (structured_DNA)
DNA: ATACCAGCTTATTCAATTAGCAACATGAGGGGGATAGAGGGGGTGGGTTCTCTCGGCTACAATCGTAATCAGTTAG
B3 was tested. Which Kd ([3]; label: 5'-biotin, G4 (parallel, di-/multimers) plus 5' imperfect hairpin) did it give?
The Kd was 190 ± 13 nM.

Does ATACCAGCTTATTCAATTAGCAACATGAGGGGGATAGAGGGGG (structured_DNA) [PA#2/8[S1-43] (Bio)] bind ([1]; label: biotin (5' or 3'), G4, mainly monomer, plus 5' imperfect hairpin)?
Result: no binding

Does ATACCAGCTTATTCAATTAGCAACATGAGGGGGATAGAGGGGG (structured_DNA) [PA#2/8[S1-43] (unlabelled)] bind ([2]; G4, mainly monomer, plus 5' imperfect hairpin)?
Result: binds

B4: PA#2/8[S1-58] (3'Bio) (structured_DNA)
DNA: ATACCAGCTTATTCAATTAGCAACATGAGGGGGATAGAGGGGGTGGGTTCTCTCGGCT
Which Kd ([3]; label: 3'-biotin, G4 plus 5' imperfect hairpin) does the source give for B4 here?
Its Kd is 11.3 ± 1.4 nM.

B5: PA#2/8[S1-58] (unlabelled) (structured_DNA)
DNA: ATACCAGCTTATTCAATTAGCAACATGAGGGGGATAGAGGGGGTGGGTTCTCTCGGCT
Does B5 bind ([2]; G4 plus 5' imperfect hairpin)?
Result: binds

B6: PA#2/8[S1-58] (5'Bio) (structured_DNA)
DNA: ATACCAGCTTATTCAATTAGCAACATGAGGGGGATAGAGGGGGTGGGTTCTCTCGGCT
B6 was tested. Which Kd ([3]; label: 5'-biotin, G4 plus 5' imperfect hairpin) did it give?
The Kd was 23.7 ± 2 nM.
